Test results reported in article PMC5508204, “Escherichia coli FtsA forms lipid-bound minirings that antagonize lateral interactions between FtsZ protofilaments” (Nature Communications, 2017).

B1: Escherichia coli FtsA (natural protein, E. coli, UniProt P0ABH0 1-420, looked up)
chain: MIKATDRKLVVGLEIGTAKVAALVGEVLPDGMVNIIGVGSCPSRGMDKGGVNDLESVVKCVQRAIDQAELMADCQISSVYLALSGKHISCQNEIGMVPISEEEVTQEDVENVVHTAKSVRVRDEHRVLHVIPQEYAIDYQEGIKNPVGLSGVRMQAKVHLITCHNDMAKNIVKAVERCGLKVDQLIFAGLASSYSVLTEDERELGVCVVDIGGGTMDIAVYTGGALRHTKVIPYAGNVVTSDIAYAFGTPPSDAEAIKVRHGCALGSIVGKDESVEVPSVGGRPPRSLQRQTLAEVIEPRYTELLNLVNEEILQLQEKLRQQGVKHHLAAGIVLTGGAAQIEGLAACAQRVFHTQVRIGAPLNITGLTDYAQEPYYSTAVGLLHYGKESHLNGEAEVEKRVTASVGSWIKRLNSWLRKEF
notes: FtsA, actin homologue of the divisome, Escherichia coli, wild type; ATP is thought to be present in the preparation; 0.05 mM ADP was added for storage; also called WT FtsA; His6-tagged FtsA

What was measured:
[1] = target: B1; test: negative stain transmission electron microscopy on lipid monolayers; E. coli polar lipid monolayer under an EM grid, on storage buffer lacking EDTA (50 mM Tris pH 7.5, 250 mM KCl, 10 mM MgCl2, 10% glycerol). Added in turn: 0.1-1 uM FtsA (40 min), 4 mM ATP (20 min), 5 uM FtsZ (5 min), 4 mM GTP (20 min). Stained with 1% uranyl acetate.; conditions: both partners purified
[2] = target: the molecule itself; test: as above
[3] = target: the molecule itself; test: negative stain electron tomography with subtomogram averaging; FtsA minirings with FtsZ protofilaments on lipid monolayers; 300 kV, single-axis tilt series -60 to +60 degrees; 23 tomograms; 18,400 ring-like structures averaged and classified

Binder	binding result [1]	binding result [2]	stoichiometry N [3]
Escherichia coli FtsZ (natural protein, E. coli, UniProt P0A9A6 1-383, looked up, FtsZ, tubulin homologue, Escherichia coli, wild type; Assembled with GTP in the assay; also called WT FtsZ; source: E. coli BL21(DE3), from a pET11 plasmid, purified (ammonium sulfate precipitation)) MFEPMELTNDAVIKVIGVGGGGGNAVEHMVRERIEGVEFFAVNTDAQALRKTAVGQTIQIGSGITKGLGAGANPEVGRNAADEDRDALRAALEGADMVFIAAGMGGGTGTGAAPVVAEVAKDLGILTVAVVTKPFNFEGKKRMAFAEQGITELSKHVDSLITIPNDKLLKVLGRGISLLDAFGAANDVLKGAVQGIAELITRPGLMNVDFADVRTVMSEMGYAMMGSGVASGEDRAEEAAEMAISSPLLEDIDLSGARGVLVNITAGFDLRLDEFETVGNTIRAFASDNATVVIGTSLDPDMNDELRVTVVATGIGMDKRPEITLVTNKQVQQPVMDRYQQHGMAPLTQEQKPVAKVVNDNAPQTAKEPDYLDIPAFLRKQAD	binds	binds	
FtsZ* (FtsZ L169R) (natural protein, E. coli, UniProt P0A9A6 1-383, looked up, FtsZ, Escherichia coli, gain-of-function mutant L169R (FtsZ*); Assembled with GTP in the assay; source: E. coli BL21(DE3), from a pET11 plasmid, purified (ammonium sulfate precipitation)) MFEPMELTNDAVIKVIGVGGGGGNAVEHMVRERIEGVEFFAVNTDAQALRKTAVGQTIQIGSGITKGLGAGANPEVGRNAADEDRDALRAALEGADMVFIAAGMGGGTGTGAAPVVAEVAKDLGILTVAVVTKPFNFEGKKRMAFAEQGITELSKHVDSLITIPNDKLRKVLGRGISLLDAFGAANDVLKGAVQGIAELITRPGLMNVDFADVRTVMSEMGYAMMGSGVASGEDRAEEAAEMAISSPLLEDIDLSGARGVLVNITAGFDLRLDEFETVGNTIRAFASDNATVVIGTSLDPDMNDELRVTVVATGIGMDKRPEITLVTNKQVQQPVMDRYQQHGMAPLTQEQKPVAKVVNDNAPQTAKEPDYLDIPAFLRKQAD	binds	binds	
B1			12 subunits
